Measured values published in patent US20190218304A1 (INNATE PHARMA, published 2019).

Experiments:
[1] = target: T1, CD39 mutant 15 (human, UniProt P49961 1-510); experiment: flow cytometry on Hek-293T cells transfected with CD39 mutant 15 [panel M15]
T1 construct: Expressed on transfected Hek-293T cells; also called M15
T1 chain: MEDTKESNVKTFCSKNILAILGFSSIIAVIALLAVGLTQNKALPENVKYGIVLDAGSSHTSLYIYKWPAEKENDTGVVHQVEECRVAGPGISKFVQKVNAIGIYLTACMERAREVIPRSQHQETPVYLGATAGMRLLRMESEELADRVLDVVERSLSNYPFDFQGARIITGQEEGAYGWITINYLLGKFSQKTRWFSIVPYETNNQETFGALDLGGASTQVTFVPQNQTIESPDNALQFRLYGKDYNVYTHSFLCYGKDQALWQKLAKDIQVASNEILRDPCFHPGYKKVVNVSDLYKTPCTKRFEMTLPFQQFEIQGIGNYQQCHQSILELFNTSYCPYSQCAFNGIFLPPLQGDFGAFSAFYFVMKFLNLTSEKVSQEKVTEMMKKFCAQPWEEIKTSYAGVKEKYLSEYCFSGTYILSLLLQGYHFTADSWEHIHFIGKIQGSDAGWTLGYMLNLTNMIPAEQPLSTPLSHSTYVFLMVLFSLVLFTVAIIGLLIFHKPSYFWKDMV

[2] = target: T2, human CD39 expressed on cells (human, UniProt P49961 1-510); experiment: flow cytometry titration on Ramos lymphoma cells, first experiment; Ramos cells, first set of experiments
T2 construct: On CHO transfectants, HEK-293T transfectants (wild type), Ramos lymphoma cells or monocyte-derived dendritic cells, as named under assay; also called huCD39; CHO-huCD39
T2 sequence: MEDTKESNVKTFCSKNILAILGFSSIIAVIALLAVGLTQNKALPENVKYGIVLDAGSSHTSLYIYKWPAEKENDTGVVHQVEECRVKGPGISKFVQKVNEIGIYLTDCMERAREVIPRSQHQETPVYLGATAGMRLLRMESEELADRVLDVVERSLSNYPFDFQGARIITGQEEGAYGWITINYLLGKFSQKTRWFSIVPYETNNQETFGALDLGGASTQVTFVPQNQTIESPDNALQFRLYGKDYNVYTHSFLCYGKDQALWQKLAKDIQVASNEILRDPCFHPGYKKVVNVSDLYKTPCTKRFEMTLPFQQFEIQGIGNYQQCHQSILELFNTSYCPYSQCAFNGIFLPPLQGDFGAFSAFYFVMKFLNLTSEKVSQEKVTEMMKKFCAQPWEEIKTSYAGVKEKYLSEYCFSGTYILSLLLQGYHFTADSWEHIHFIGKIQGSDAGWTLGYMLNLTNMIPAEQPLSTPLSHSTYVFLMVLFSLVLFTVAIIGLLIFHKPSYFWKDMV
Method: (§1) Cells were incubated with various concentration of unlabeled anti-CD39 antibody from 30 μg/ml to 5×10⁻⁴ μg/ml, for 30 minutes at 4° C. After washes, cells were incubated with Goat anti-mouse H+L labeled secondary antibody for 30 min at 4° C.

[3] = target: T3, murine CD39 expressed on CHO cells (murine, UniProt P55772 1-510); experiment: flow cytometry titration on CHO cells expressing murine CD39 [panel CHO-moCD39]
T3 construct: whole, on cells; also called CHO-moCD39; mouse CD39
T3 sequence (looked up): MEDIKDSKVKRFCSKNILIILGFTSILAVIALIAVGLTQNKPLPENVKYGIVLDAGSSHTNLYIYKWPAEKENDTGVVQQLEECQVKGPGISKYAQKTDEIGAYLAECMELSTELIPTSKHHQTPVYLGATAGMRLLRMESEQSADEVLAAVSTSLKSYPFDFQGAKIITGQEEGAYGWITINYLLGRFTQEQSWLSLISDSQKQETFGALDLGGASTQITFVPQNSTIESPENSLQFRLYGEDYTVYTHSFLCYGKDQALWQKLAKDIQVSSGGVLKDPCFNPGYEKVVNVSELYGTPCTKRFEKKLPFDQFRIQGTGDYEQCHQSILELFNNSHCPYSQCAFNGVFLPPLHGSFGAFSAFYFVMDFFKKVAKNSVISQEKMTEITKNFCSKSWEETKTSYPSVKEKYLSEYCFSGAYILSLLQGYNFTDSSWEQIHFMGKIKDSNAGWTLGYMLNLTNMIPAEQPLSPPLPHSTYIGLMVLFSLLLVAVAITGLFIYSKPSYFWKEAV
Method: as §1

[4] = target: T4, CD39 mutant 5 (human, UniProt P49961 1-510); experiment: flow cytometry on Hek-293T cells transfected with CD39 mutant 5 [panel M5]
T4 construct: Expressed on transfected Hek-293T cells; also called M5
T4 chain: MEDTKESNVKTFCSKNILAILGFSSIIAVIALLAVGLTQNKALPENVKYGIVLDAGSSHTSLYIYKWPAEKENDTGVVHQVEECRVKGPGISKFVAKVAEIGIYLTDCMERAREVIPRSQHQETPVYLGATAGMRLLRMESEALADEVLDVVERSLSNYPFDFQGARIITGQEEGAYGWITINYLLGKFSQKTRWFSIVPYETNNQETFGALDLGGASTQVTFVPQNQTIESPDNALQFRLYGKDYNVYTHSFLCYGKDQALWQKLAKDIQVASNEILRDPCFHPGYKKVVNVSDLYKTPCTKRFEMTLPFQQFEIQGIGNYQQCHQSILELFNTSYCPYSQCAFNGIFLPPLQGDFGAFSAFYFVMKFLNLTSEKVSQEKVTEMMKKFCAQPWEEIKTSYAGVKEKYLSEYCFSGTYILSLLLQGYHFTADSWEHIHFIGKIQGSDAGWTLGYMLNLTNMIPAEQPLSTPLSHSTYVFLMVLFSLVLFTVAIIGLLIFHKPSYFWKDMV

- binding result [1]: binds
- EC50 [2]: 0.16 µg/mL
- binding result [3]: no binding
- binding result [4]: binds
B1: antibody I-394 (antibody, human IgG1, kappa, V domains shown)
VH: EVQLQQSGPELVKPGASVKMSCKASGYTFTDYNMHWVKQSHGRTLEWIGYIVPLNGGSTFNQKFKGRATLTVNTSSRTAYMELRSLTSEDSAAYYCARGGTRFAYWGQGTLVTVSA
VL: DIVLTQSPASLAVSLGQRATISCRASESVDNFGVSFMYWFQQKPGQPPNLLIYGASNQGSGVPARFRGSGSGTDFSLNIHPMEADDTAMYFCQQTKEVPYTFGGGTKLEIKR
notes: The hybridoma-derived mouse form was used in early screening
